Experimental data: patent publication US20260098092A1 (CHULALONGKORN UNIVERSITY, published 2026)

Key:
[1] = target: T1, recombinant human PD-1 His-tag protein (R&D Systems) (human, UniProt Q15116 25-167); experiment: binding kinetics (method not described at the table; presumably SPR as in Example 8)
T1 construct: Bought reagent; Used for the ELISA (coated) and for SPR (analyte); also called PD-1 protein; human PD-1 protein; not shown: His-tag

[2] = target: T1, recombinant human PD-1 His-tag protein …; experiment: SPR, Biacore T200, as in Example 8 (antibody on Protein G chip, PD-1 His-tag injected)
Procedure: The Biacore T200 instrument, equipped with a Protein G sensor chip (GE Healthcare), was used to determine the binding kinetics between chimeric anti-PD-1 antibodies and PD-1 protein. Each purified chimeric anti-PD-1 antibody (1 μg/mL) was injected into the chip with a flow rate of 30 μL/min for 60 sec. […] The HBS-EP+buffer (GE Healthcare) was used as a buffer blank and diluent. The association constant (kₒₙ), dissociation constant (koff), and equilibrium constant (KD) values were calculated using Biacore T200 evaluation software (version 3.1) with a 1:1 Langmuir binding model curve fitting.

T1 sequence (Q15116 25-167 limits assumed): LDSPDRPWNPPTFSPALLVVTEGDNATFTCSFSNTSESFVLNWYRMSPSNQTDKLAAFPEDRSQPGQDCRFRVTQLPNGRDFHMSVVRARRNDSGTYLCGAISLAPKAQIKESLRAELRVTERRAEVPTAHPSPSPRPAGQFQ

Row | Binder | Kd [1] | koff [1] | kon [1] | Kd [2] | koff [2] | kon [2]
1 | Modified Seq8 (modified zCUSB0136.8 antibody) (antibody, V domains shown) VH: QVQLQESGPGLVKPSETLSLTCTVSGFSLTTYDIIWIRQSPGKGLEWLGVIWTGGDTWYNSAFMSRLTISKDTSKNQISLKMSSLTAADTAVYYCARDWIYWGQGTLVTVSS VL: DIVLTQSPDSLAVSLGERATISCRASESVDNYGNSFIQWYQQKPGQPPKLLIYFASYLQSGVPDRFSGSGSGTDFTLTISSVQAEDVATYYCHQNNEDPFTFGGGTKLEIK | 0.0147 nM | 6.09e-05 s⁻¹ | 4.13e+06 M⁻¹ s⁻¹ |  |  | 
2 | Modified Seq16 (modified zCUSB0136.8 antibody) (antibody, V domains shown) VH: QVQLQESGPGLVKPSETLSLTCTVSGFSLTTYDIIWIRQSPGKGLEWLGVIWTGGDTTYNSAFMSRLTISKDTSKNQISLKMSSLTAADTAVYYCARDWAYWGQGTLVTVSS VL: DIVLTQSPDSLAVSLGERATISCRASESVDNYGNSFIQWYQQKPGQPPKLLIYFASYLQSGVPDRFSGSGSGTDFTLTISSVQAEDVATYYCHQNNEDPFTFGGGTKLEIK | 0.0266 nM | 9.31e-05 s⁻¹ | 3.5e+06 M⁻¹ s⁻¹ |  |  | 
3 | Modified Seq13 (modified zCUSB0136.8 antibody) (antibody, V domains shown) VH: QVQLQESGPGLVKPSETLSLTCTVSGFSLTTYDIIWIRQSPGKGLEWLGVIWTGGDTTYNSAFMSRLTISKDTSKNQISLKMSSLTAADTAVYYCARDWAYWGQGTLVTVSS VL: DIVLTQSPDSLAVSLGERATISCRASESVDNYGNSFIQWYQQKPGQPPKLLIYFASYLQSGVPDRFSGSGSGTDFTLTISSVQAEDVATYYCHQNNEDPFTFGGGTKLEIK | 0.0243 nM | 8.47e-05 s⁻¹ | 3.49e+06 M⁻¹ s⁻¹ |  |  | 
4 | Modified Seq10 (modified zCUSB0136.8 antibody) (antibody, V domains shown) VH: QVQLQESGPGLVKPSETLSLTCTVSGFSLTTYDIIWIRQSPGKGLEWLGVIWTGGDTWYNSAFMSRLTISKDTSKNQISLKMSSLTAADTAVYYCARDWMYWGQGTLVTVSS VL: DIVLTQSPDSLAVSLGERATISCRASESVDNWGNSFIQWYQQKPGQPPKLLIYFASHLQSGVPDRFSGSGSGTDFTLTISSVQAEDVATYYCHQNNEDPFTFGGGTKLEIK | 0.0174 nM | 6.74e-05 s⁻¹ | 3.87e+06 M⁻¹ s⁻¹ |  |  | 
5 | Modified Seq9 (modified zCUSB0136.8 antibody) (antibody, V domains shown) VH: QVQLQESGPGLVKPSETLSLTCTVSGFSLTTYDIIWIRQSPGKGLEWLGVIWTGGDTNYNSAFMSRLTISKDTSKNQISLKMSSLTAADTAVYYCARDWAYWGQGTLVTVSS VL: DIVLTQSPDSLAVSLGERATISCRASESVDNYGNSFIQWYQQKPGQPPKLLIYFASYLQSGVPDRFSGSGSGTDFTLTISSVQAEDVATYYCHQNNEDPFTFGGGTKLEIK | 0.0158 nM | 5.98e-05 s⁻¹ | 3.78e+06 M⁻¹ s⁻¹ |  |  | 
6 | Modified Seq15 (modified zCUSB0136.8 antibody) (antibody, V domains shown) VH: QVQLQESGPGLVKPSETLSLTCTVSGFSLTVYDIIWIRQSPGKGLEWLGVIWTGGDTTYNSAFMSRLTISKDTSKNQISLKMSSLTAADTAVYYCARDWAYWGQGTLVTVSS VL: DIVLTQSPDSLAVSLGERATISCRASESVDNWGNSFIQWYQQKPGQPPKLLIYFASNLQSGVPDRFSGSGSGTDFTLTISSVQAEDVATYYCHQNNEDPFTFGGGTKLEIK | 0.0246 nM | 6.3e-05 s⁻¹ | 2.56e+06 M⁻¹ s⁻¹ |  |  | 
7 | Modified Seq12 (modified zCUSB0136.8 antibody) (antibody, V domains shown) VH: QVQLQESGPGLVKPSETLSLTCTVSGFSLTVYDIIWIRQSPGKGLEWLGVIWTGGDTTYNSAFMSRLTISKDTSKNQISLKMSSLTAADTAVYYCARDWIYWGQGTLVTVSS VL: DIVLTQSPDSLAVSLGERATISCRASESVDNWGNSFIQWYQQKPGQPPKLLIYFASHLQSGVPDRFSGSGSGTDFTLTISSVQAEDVATYYCHQNNEDPFTFGGGTKLEIK | 0.0225 nM | 6.81e-05 s⁻¹ | 3.03e+06 M⁻¹ s⁻¹ |  |  | 
8 | Modified Seq14 (modified zCUSB0136.8 antibody) (antibody, V domains shown) VH: QVQLQESGPGLVKPSETLSLTCTVSGFSLTTYDIIWIRQSPGKGLEWLGVIWTGGDTTYNSAFMSRLTISKDTSKNQISLKMSSLTAADTAVYYCARDWIYWGQGTLVTVSS VL: DIVLTQSPDSLAVSLGERATISCRASESVDNWGNSFIQWYQQKPGQPPKLLIYFASNLQSGVPDRFSGSGSGTDFTLTISSVQAEDVATYYCHQNNEDPFTFGGGTKLEIK | 0.0244 nM | 6.5e-05 s⁻¹ | 2.67e+06 M⁻¹ s⁻¹ |  |  | 
9 | Modified Seq17 (modified zCUSB0136.8 antibody) (antibody, V domains shown) VH: QVQLQESGPGLVKPSETLSLTCTVSGFSLTVYDIIWIRQSPGKGLEWLGVIWTGGDTTYNSAFMSRLTISKDTSKNQISLKMSSLTAADTAVYYCARDWAYWGQGTLVTVSS VL: DIVLTQSPDSLAVSLGERATISCRASESVDNYGNSFIQWYQQKPGQPPKLLIYFASYLQSGVPDRFSGSGSGTDFTLTISSVQAEDVATYYCHQNNEDPFTFGGGTKLEIK | 0.0289 nM | 7.39e-05 s⁻¹ | 2.56e+06 M⁻¹ s⁻¹ |  |  | 
10 | Modified Seq18 (modified zCUSB0136.8 antibody) (antibody, V domains shown) VH: QVQLQESGPGLVKPSETLSLTCTVSGFSLTTYDIIWIRQSPGKGLEWLGVIWTGGDTTYNSAFMSRLTISKDTSKNQISLKMSSLTAADTAVYYCARDWAYWGQGTLVTVSS VL: DIVLTQSPDSLAVSLGERATISCRASESVDNWGNSFIQWYQQKPGQPPKLLIYFASQLQSGVPDRFSGSGSGTDFTLTISSVQAEDVATYYCHQNNEDPFTFGGGTKLEIK | 0.0307 nM | 7.82e-05 s⁻¹ | 2.54e+06 M⁻¹ s⁻¹ |  |  | 

Continued, values first:

Row | Kd [1] | koff [1] | kon [1] | Kd [2] | koff [2] | kon [2] | Binder
11 | 0.0319 nM | 8.7e-05 s⁻¹ | 2.73e+06 M⁻¹ s⁻¹ |  |  |  | Modified Seq20 (modified zCUSB0136.8 antibody) (antibody, V domains shown) VH: QVQLQESGPGLVKPSETLSLTCTVSGFSLTVYDIIWIRQSPGKGLEWLGVIWTGGDTTYNSAFMSRLTISKDTSKNQISLKMSSLTAADTAVYYCARDWIYWGQGTLVTVSS VL: DIVLTQSPDSLAVSLGERATISCRASESVDNYGNSFIQWYQQKPGQPPKLLIYFASHLQSGVPDRFSGSGSGTDFTLTISSVQAEDVATYYCHQNNEDPFTFGGGTKLEIK
12 | 0.0315 nM | 7.97e-05 s⁻¹ | 2.53e+06 M⁻¹ s⁻¹ |  |  |  | Modified Seq19 (modified zCUSB0136.8 antibody) (antibody, V domains shown) VH: QVQLQESGPGLVKPSETLSLTCTVSGFSLTTYDIIWIRQSPGKGLEWLGVIWTGGDTTYNSAFMSRLTISKDTSKNQISLKMSSLTAADTAVYYCARDWAYWGQGTLVTVSS VL: DIVLTQSPDSLAVSLGERATISCRASESVDNWGNSFIQWYQQKPGQPPKLLIYFASNLQSGVPDRFSGSGSGTDFTLTISSVQAEDVATYYCHQNNEDPFTFGGGTKLEIK
13 | 0.0618 nM | 0.000112 s⁻¹ | 1.81e+06 M⁻¹ s⁻¹ |  |  |  | Modified Seq24 (modified zCUSB0136.8 antibody) (antibody, V domains shown) VH: QVQLQESGPGLVKPSETLSLTCTVSGFSLTVYDIIWIRQSPGKGLEWLGVIWTGGDTTYNSAFMSRLTISKDTSKNQISLKMSSLTAADTAVYYCARDWAYWGQGTLVTVSS VL: DIVLTQSPDSLAVSLGERATISCRASESVDNYGNSFIQWYQQKPGQPPKLLIYFASQLQSGVPDRFSGSGSGTDFTLTISSVQAEDVATYYCHQNNEDPFTFGGGTKLEIK
14 | 0.0582 nM | 0.000288 s⁻¹ | 4.96e+06 M⁻¹ s⁻¹ |  |  |  | Modified Seq23 (modified zCUSB0136.8 antibody) (antibody, V domains shown) VH: QVQLQESGPGLVKPSETLSLTCTVSGFSLTVYDIIWIRQSPGKGLEWLGVIWTGGDTNYNSAFMSRLTISKDTSKNQISLKMSSLTAADTAVYYCARDWAYWGQGTLVTVSS VL: DIVLTQSPDSLAVSLGERATISCRASESVDNWGNSFIQWYQQKPGQPPKLLIYFASYLQSGVPDRFSGSGSGTDFTLTISSVQAEDVATYYCHQNNEDPFTFGGGTKLEIK
15 | 0.057 nM | 0.000134 s⁻¹ | 2.36e+06 M⁻¹ s⁻¹ |  |  |  | Modified Seq22 (modified zCUSB0136.8 antibody) (antibody, V domains shown) VH: QVQLQESGPGLVKPSETLSLTCTVSGFSLTTYDIIWIRQSPGKGLEWLGVIWTGGDTTYNSAFMSRLTISKDTSKNQISLKMSSLTAADTAVYYCARDWAYWGQGTLVTVSS VL: DIVLTQSPDSLAVSLGERATISCRASESVDNWGNSFIQWYQQKPGQPPKLLIYFASNLQSGVPDRFSGSGSGTDFTLTISSVQAEDVATYYCHQNNEDPFTFGGGTKLEIK
16 | 0.0412 nM | 0.000104 s⁻¹ | 2.52e+06 M⁻¹ s⁻¹ |  |  |  | Modified Seq21 (modified zCUSB0136.8 antibody) (antibody, V domains shown) VH: QVQLQESGPGLVKPSETLSLTCTVSGFSLTTYDIIWIRQSPGKGLEWLGVIWTGGDTTYNSAFMSRLTISKDTSKNQISLKMSSLTAADTAVYYCARDWAYWGQGTLVTVSS VL: DIVLTQSPDSLAVSLGERATISCRASESVDNWGNSFIQWYQQKPGQPPKLLIYFASNLQSGVPDRFSGSGSGTDFTLTISSVQAEDVATYYCHQNNEDPFTFGGGTKLEIK
17 |  |  |  | 0.0155 nM | 7.27e-05 s⁻¹ | 4.68e+06 M⁻¹ s⁻¹ | zCUSB0136.8-2 (antibody, V domains shown, also called CUSB0136-BMVH.3b with CUSB0136-BMVL.2b) VH: QVQLQESGPGLVKPSETLSLTCTVSGFSLTVYDIIWIRQSPGKGLEWLGVIWTGGDTTYNSAFMSRLTISKDTSKNQISLKMSSLTAADTAVYYCARDWIYWGQGTLVTVSS VL: DIVLTQSPDSLAVSLGERATISCRASESVDNYGNSFIQWYQQKPGQPPKLLIYFASYLQSGVPDRFSGSGSGTDFTLTISSVQAEDVATYYCHQNNEDPFTFGGGTKLEIK
18 |  |  |  | 0.0237 nM | 0.000142 s⁻¹ | 6e+06 M⁻¹ s⁻¹ | zCUSB0136.8-1 (antibody, V domains shown, also called CUSB0136-BMVH.3a with CUSB0136-BMVL.2a) VH: QVQLQESGPGLVKPSETLSLTCTVSGFSLTTYDIIWIRQSPGKGLEWLGVIWTGGDTWYNSAFMSRLTISKDTSKNQISLKMSSLTAADTAVYYCARDWAYWGQGTLVTVSS VL: DIVLTQSPDSLAVSLGERATISCRASESVDNWGNSFIQWYQQKPGQPPKLLIYFASYLQSGVPDRFSGSGSGTDFTLTISSVQAEDVATYYCHQNNEDPFTFGGGTKLEIK
19 | 0.0664 nM | 0.000145 s⁻¹ | 2.18e+06 M⁻¹ s⁻¹ |  |  |  | Modified Seq25 (modified zCUSB0136.8 antibody) (antibody, V domains shown) VH: QVQLQESGPGLVKPSETLSLTCTVSGFSLTTYDIIWIRQSPGKGLEWLGVIWTGGDTTYNSAFMSRLTISKDTSKNQISLKMSSLTAADTAVYYCARDWAYWGQGTLVTVSS VL: DIVLTQSPDSLAVSLGERATISCRASESVDNYGNSFIQWYQQKPGQPPKLLIYFASHLQSGVPDRFSGSGSGTDFTLTISSVQAEDVATYYCHQNNEDPFTFGGGTKLEIK
